Consider 23 sequences from the DeepSol protein solubility set.

This series is described as follows: soluble on expression in E. coli; label from the status in PepcDB or PDB records.
In the case of “MLPAVPPQQWALSAGNGSSEVEVVPFQEVWGRSYCRALERLVDVVSEYPSEVEHMFSPSCVSLLRCTGCCGDENLHCVPVETANVTMQLLKIRSGDRPSYVELTFSQHVRCECRPLREKMKPERCGDAVPRR”, the “soluble on expression in E. coli” value is given as “soluble”.
For “PGDESEEQSIKAGMMVCHVFVPGFDDLSEQQQIHMAQAIDHPVRKTAHATEYAMLAGLVLGAVTVSIIRWKNVLVSVCIAVLYASTDELHQLFVPGRSGQVKD”, the “soluble on expression in E. coli” value was “not soluble”.
In the case of “MGSDKIHHHHHHAGSCTGNFEEYNTNQFQIHEADPSTLMKSMIETIVNIQQNDSQMMDQMVGQLGGYLTCANVWSGTNFGTFNQSDAWNAGPWNTNFEKIYGNFFQIQEATNESGHYYAFARMIRAITMLRVADCYGPMPYSQVKKGNFYVAYDTEEQVYKNIMEDFASAANVLYNYYKDTNGNAPLASNDPVFSGNYANWARLANSMRLRVAIRISTAYPEMAKENAEAAASHEAGLIEANNDNAMMDCGSQTNPYQLAAVSWGDLRVNANIVDYMNGYGDPRMSKYFNHSTFTGHTQEYVGMRSGEDGFAKSDVAGYSIPAITGTSKLLVFCAAETAFLRAEGKLKNWSVGNKSAKEYYEEGIKLSMEQYGTTMPDNYLTNTEKPTVSHNNDPRGHAYTISNTVAVAWNDNNEEENLQRIITQKWIANYPLGLEAWAEYRRTGYPELYPCIDNLSPSGVDSKRGMRRLRFPYTEVQNNHSNYQQGVSYLKNGGPDNEATDLSWGKTN”, the “soluble on expression in E. coli” value was “not soluble”.
As for “MGSDKIHHHHHHMTIEMKNNKNNNCNFPTLRFPEFSGEWKKDIIGNVISVKSEKYNPHSNRTEFICVELESISQGTGELLETFNSAEQKSIKNKFSPGTVLFGKLRPYLRKFYLPYFEGVCSSEIWVMRSNKIEPAFLYSFIQTPYFISLANQSSGSKMPRADWGLIETSKIAYPPNSAERVKIGKFLKLIDERIATQNKIIAHLESLIKGLTNQLLIPNSNWQPTTIGQVLTINPGKDYKHLKEGNIPVYGTGGYMLSVNDYLYDGESVCIGRKGTINKPIFLTGKFWTIDTLFYTSNFNSLLPRFGYYLFKTIDWLKYNEASGVPSLSKVSIEKIHISLPSLAIQNSICRLLDSIYDKLALEESVLNNHQTQKAFILQQMFI”, the “soluble on expression in E. coli” value is on record as “not soluble”.
As for “SADREGSVRVVGTAHVSSDSVEEVERVIDDEHPDTVAVELDEGRFRQMQGDAPDDLDATDLLKGSMAFQFLAYWLLSYAQRRLGEKFGIEPGADMQAAVDAANTAGADVALVDRDIQVTIQRFWARMSLPEKLRMGGELALGVTDSLTL”, the “soluble on expression in E. coli” value is given as “not soluble”.
The result for “MNLDDIESLSEQIARHIGEQIITGELVEGERIQELRIAKELDVSRGSVREALLLLERTHLIEIFPRRGAIVSEMSSQQVKALFDSSVLVLGHIVQKISESWRVHEAEQLQHLIEQLNEHVKAGDTEKFYDGIFEYLAQQHDMVMNAYLMKFYKELLPSLRRSYFLTLNTSRRELQEALALFKLVTDAILIRKSHQATLFMEDFCRHLRNLVLESLTRMKQIELAWARRSRRSSNR” reads “not soluble”; that for “MSELGAKYQQLQNELEEFIVARQKLETQLQENKIVNEEFDQLEEDTPVYKLTGNVLLPVEQSEARTNVDKRLEFIETEITRCEKNIRDKQEELEKMRSELIKLNNTAASTGPGR”, “soluble”.
In the case of “MAHHHHHHMDSEETINLAVKYAKEAVVEDEKKNYKEALNLYIQSLQYFNFFCKYEKNSNIRDLILKKMEVYMTRAENLKEMLNKKDSIENKEKITNTEETKENMKKQIKQFILNKNNNIKWSDVCGLETAKEVLKEAIIFPLKFPKLFNSSTLPYKGILLYGPPGTGKTFLALACSNECNMNFFNVSSSDLVSKYQGESEKYIKCLFETAKEHSPAIIFIDEIDSLCGSRTDGENESTRRIKTEFLINMSGLTNYKNNIIVMGATNTPWSLDSGFRRRFEKRIYIPLPNIYARAKIFEKYINQNENNNISKEDIKQFATLTENYTGADIDILCRDAVYMPVKKCLLSKFFKQVKKNNKICYTPCSPGDSDPTKVEKNVMSLSENELSLPPLTVQDFKTAISNAKPSLSVDDIKKYEEWTHQYGMNGT”, the “soluble on expression in E. coli” value is “not soluble”.
In the case of “WPALDDETLLARLELWLEPYLAGVTSVKGLQSVSVLQALKHYLGWELSQQLDEWLPTHHLLPTGNHKKIRYQLGMEPTLSVRMQEVFGEQSSPRVAKGTRAVVMELLSPAQRPLQVTRDLASFWAGAYKEVQKEMKGRYPKHVWPDDP”, the “soluble on expression in E. coli” value is on record as “not soluble”.
Turning to “MKVAVLPGDGIGPEVTEAALKVLRALDEAEGLGLAYEVFPFGGAAIDAFGEPFPEPTRKGVEEAEAVLLGSVGGPKWDGLPRKIRPETGLLSLRKSQDLFANLRPAKVFPGLERLSPLKEEIARGVDVLIVRELTGGIYFGEPRGMSEAEAWNTERYSKPEVERVARVAFEAARKRRKHVVSVDKANVLEVGEFWRKTVEEVGRGYPDVALEHQYVDAMAMHLVRSPARFDVVVTGNIFGDILSDLASVLPGSLGLLPSASLGRGTPVFEPVHGSAPDIAGKGIANPTAAILSAAMMLEHAFGLVELARKVEDAVAKALLETPPPDLGGSAGTEAFTATVLRHLA”, the “soluble on expression in E. coli” value is listed as “soluble”.
With “MFQLLAVCPMGLEAVVAKEIQELGYDTQVENGRIFFEGDESAIVRCNLWLRTADRIKIVMGRFNATTFDELFEQTKSLPWETVIDKEGNFPVQGRSVKSTLYSVPDCQAITKKAIVERLKHAHQEKGWLSETGAKYPVEVAILKDNVLLTIDTAGSGLNKRGYRIAQGEAPIKETLAASLIRLANWNGNTPLIDPFCGSGTIAIEACLIAQNIAPGFNRDFVSEQWNMMPPNIYDKFRDEADQLADYDKDIQVYASDIDPEMIEIAKRNAEEVGLGDIIQFNVKDVNTLSIDTDKPVALVGNPPYGERIGDREEVEEMYRYIGTLLKQHPHLSAYILTSNKEFEYLVNRKATKRRKLFNGYIECTYYQYWGKKQSNKN”, the “soluble on expression in E. coli” value is recorded as “not soluble”.
With “MKLNCCGVTQIADRVERLAHTHGKTWHTWHTDQDKTLPLGVPQLMMGFTADGQADPAMQQQRNQRLGIVKSAIKAQRADIQIPKADPGADGWQHGKTIQINDPTGHLHGPATSPTPQNTNSRSTQLEHHHHHH” the entry was “not soluble”; with “MAHHHHHHMKNSQMERKKYSVHNLVKLINERNKQNVRNKQPAVGADGTTSINAAGDGLDGETHSNFFHVEKNGQVGRKDKAGFPAEDGEIGGEYDVRDGSVDEEDECDGEAVRDGEAAPDEERADCTDGADTTLPPGGGGEVKLFMFDYNECQNQKCSCKKLYRFKKIKKAPINKKFKGIVLTPFCEKFFSINDKATVENFGLSVIDCSWKSLDLLKKAKFANQRKLPYIIAVNSINYGKPYKLSCLESLAFCLYVCGYNKQCTDILNIYKWSSSFVNLNGELLDMYKLCNTHEEVKSVEDEFIHNSLSEKEKRKEIDQYRVIYEDGYL”, “soluble”.
For “GMELKDIMHILEDMKVGVFATLDEYGNPHARHAHITAANEEGIFFMTSPETHFYDQLMGDQRVAMTAISEEGYLIQVVRVEGTARPVENDYLKTVFADNPYYQHIYKDESSDTMQVFQIYAGHGFYHSLTQGHKYIFSIGQGEHSEVRAL”, the “soluble on expression in E. coli” value is “soluble”.
With “MSLNLATLQSQFAKALHYQALGEDCDIASDEFTADERIQIYRNNFIVSLSEVLSATYPMVEALLGEECFEQIARQHVLSYPLKEGNVVHYGEGFQDTIMQFSQVIAQAPYSPEVARFEWHIDLARQAQYEQSNAAELKPLALLGEVSEEQQPALVLHLKKGCRSFDSNYAVFDLFSAIQTGQFEQLNINQLQQGVISIQANGEALCHALDADVFQLLQCLEQKQSLSEIPEVLLAHLNRIMALDIVDGFTLQSIEGHHHHHH” the entry was “soluble”; with “MKIISFVLPCLLVLAGCSTPSQPEAPKPPQIGMANPASVYCQQKGGTLIPVQTAQGVSNNCKLPGGETIDEWALWRRDHPAGEKLEHHHHHH”, “not soluble”.
The result for “MRKQLPVICVAAGIVLLAACTNDGGQQQTTVAPQPAVCNGPTVEISGAEPRYEPLNPTANQDYQRDGKSYKIVQDPSRFSQAGLAAIYDAEPGSNLTASGEMFDPMQLTAAHPTLPIPSYARITNLANGRMIVVRINDRGPYGTDRVISLSRAAADRLNTSNNTKVRIDPIIVAPDGSLSGPGMACTTVAKQTYALPPRPDLSGGMGSASSAPAQPQGDVLPVSNSTLKSDDTTGAPVSSSGFLGAPTTLAPGVLESNEPTPAPQPAPVSAPVAAPATAPATATPVSAPAAAAPVSAPVSAPAAAASGRFVVQVGAVSDQTRAQQYQQRLSQQFSVPGRVIQNGAVWRIQLGPFASKAEASALQQRLQTEAQLQSFIASAQ” reads “not soluble”; that for “MPDGTIDGGHPQRPASPRLRSPLLRLATWNVNSIRTRLDRVLDWLGRADVDVLAMQETKCPDGQFPALPLFELGYDVAHVGFDQWNGVAIASRVGLDDVRVGFDGQPSWSGKPEVAATTEARALGATCGGIRVWSLYVPNGRALDDPHYTYKLDWLAALRDTAEGWLRDDPAAPIALMGDWNIAPTDDDVWSTEFFAGCTHVSEPERKAFNAIVDAQFTDVVRPFTPGPGVYTYWDYTQLRFPKKQGMRIDFILGSPALAARVMDAQIVREERKGKAPSDHAPVLVDLHAG”, “not soluble”.
“MGKLALAAKITHVPSMYLSELPGKNHGCRQGAIDGHKEISKRCREMGVDTIIVFDTHWLVNSAYHINCADHFEGVYTSNELPHFIRDMTYNYEGNPELGQLIAEEALKLGVRAKAHNIPSLKLEYGTLVPMRYMNEDKHFKVVSISAFCTVHDFADSRKLGEAILKAIEQYDGTVAVLASGSLSHRFIDDQRAEEGMNSYTREFDRQMDERVVKLWREGQFKEFCNMLPEYADYCYGEGNMHDTVMLLGMLGWDKYDGKVEFITELFPSSGTGQVNAVFPLPA”: the “soluble on expression in E. coli” value is recorded as “not soluble”.
With “MGSDKIHHHHHHMLNPREIRTIEDAKRIVEERQLTHVKVGLFDIDGVMLGKYMSRNKFFSALEHGFAFCDVILGWDSKDKLYDNVKYTGWHTGYPDASVRIVPSTCREILFEENQLLFMAEFSQAAEAICPRGILRRVINKAAGMGYDVYAALEYEFFVFDETPDSVRAKGFRNLKPVTPDNFGYSIIRNTVHAEFYHQILTMAEKMDFPIEGLHTETGPGVLEAAIAVDDAEAAGDKAALFKTFMKILAQRNNKMATFMAKWSGDYPGQSGHIHLSLRDRDGGKSAFYESGREYNMSKIQRHFLAGQQKLMPEFLAMLSPTVNSYSRLIPGYWAPTEATWGVENRTTALRVIPGSDKSQRIEYRLGSADANPYLALAAAIGSGLYGIENELEPEAEVKGNSYEQHHSPALALPRTLWESAQNLKNSSAAYELFGQEFVEHFAASREWEEREFRKHITDWELDRYFEII” the entry was “not soluble”; with “MEKELVFAGFGGQGVLTLGLIVAESALELGKQVTWMPAYGPTMRGGKAYSVVKFSDESIGGPDMEEIDVLVAMNKPSLDYINLVKEGGTVVINTSAIDENVTLREDISVVKINCQELAQKVNNPK”, “not soluble”.
Take “SNAMADLLLGVNIDHIATLRNARGTIYPDPVQAAFIAEQAGADGITVHLREDRRHITDRDVRILRQTIQTRMNLEMAVTDEMVDIACDIKPHFCCLVPEKRQEVTTEGGLDVAGQVDKMTLAVGRLADVGILVSLFIDADFRQIDAAVAAGAPYIEIHTGAYADASTVLERQAELMRIAKAATYAAGKGLKVNAGHGLTYHNVQPIAALPEMHELNIGHAIIGQAVMTGLAAAVTDMKVLMREARR”: the “soluble on expression in E. coli” value is “soluble”.
Take “MGGSHHHHHHGMASALSQATKRKHVVKEVLGEHIVPSNQQQIVRVLRTPGNNLHEVETAQGQRFLVSMPSKYRKNIWIKRGDFLIVDPIEEGEKVKAEISFVLCKDHVRSLQKEGFWPEAFSEVAEKHNNRNRQTQPELPAEPQLSGEESSSEDDSDLFVNTNRRQYHESEEESEEEEAA”: the “soluble on expression in E. coli” value is “not soluble”.
